Experimental data: article PMC9259645, “Discovery of archaeal fusexins homologous to eukaryotic HAP2/GCS1 gamete fusion proteins” (Nature Communications, 2022)

Target: the molecule itself
Assay: crystal structure; X-ray, 2.3 Å, space group C2, three-fold non-crystallographic symmetry; crystals grown at 20 °C from purified Fsx1E (in 20 mM Na-HEPES pH 7.8, 2.5 M NaCl) mixed with 23% PEG 4000, 0.1 M Tris-HCl pH 8.5, 0.2 M CaCl2

B1: Fusexin1 ectodomain (Fsx1E), residues D25-S535 with T369C, crystallised construct (domain or fragment, UniProt C0HM55 25-535, looked up)
chain: DSITYNSGTSEFFDGDVFAIEVTADQSTDEIDIYLGASELSEKTDGEVNQDLSIEFTHQDSKLKYSTSTSDELRDIVTLTTYYEDGFDTEQDAIDAIKSDCYDLNQNGNGSGRYSRYYSVTSPVYDYEIYCFQKNEKLATPAYIDNPDEIFTAKAELQAGDKTIQSATLSNGDAGDGTVTDLGDSKISWNGNLDLGASEPENSRVIALYSNDFENGWRIGNKQSYEDYKTFIGGGDAYDLLIDWQDGTYTASEVEDELVNTDANQAVEEASSSTTDLVNAKVKDSSLDTGSFVYDTPELLSYPSFTVYVDAGENGYIEVTKPTGDPDIISTSSTEIKEGDEGTVCATVENVGDGEGEFSGRLSSCGEGFSIVDDQNTKNVGAGESVTYSFDVAFSSVSSESKEISGSCTFEVNGVESSDSTSVSVTGIQQSECNPGDQRREKNENDRWEIYTCQDNGLTYEYDVTCAEDEKAVAQGDNQFSCEKQDDDSGGGDNTGSDSGLFSNLFGGSGS
notes: Fusexin1 (Fsx1), archaeal fusexin from a metagenomic ORF of a hypersaline environment (IMG genome 3300000868, scaffold JGI12330J12834_1000008, ORF 8); extracellular region, residues D25-S535; Expressed from pLJ6 (derived from pHLsec3) behind the chicken Crypα signal peptide, in frame with a 3' 8xHis tag; T369C was introduced to help heavy atom derivatisation; Homotrimer in the crystal; also …
  stoichiometry N: 3
